The record followed here is paper PMC10943247 (2024).

What is called koff is the first-order rate constant of dissociation. Higher therefore signals a short-lived complex.

In assay [1] the target is CRL2^FEM1B complex with FEM1B^F549S, unneddylated (human, UniProt Q13617 1-745; P62877 1-108; Q15370 1-104; Q15369 17-112; Q9UK73 1-627, F549S).
Assay [2] deals with CRL2^FEM1B complex with FEM1B^Δ546-553 (FEM1B^DEL), unneddylated (human, UniProt Q13617 1-745; P62877 1-108; Q15370 1-104; Q15369 17-112; Q9UK73 1-627, Δ546-553).
For assay [3], the target named is CRL2^FEM1B complex with FEM1B^F549T, unneddylated (human, UniProt Q13617 1-745; P62877 1-108; Q15370 1-104; Q15369 17-112; Q9UK73 1-627, F549T).
The target of assay [4] is CRL2^FEM1B complex with FEM1B^F549R, unneddylated (human, UniProt Q13617 1-745; P62877 1-108; Q15370 1-104; Q15369 17-112; Q9UK73 1-627, F549R).
In assay [5] the target is CRL2^FEM1B complex with FEM1B^Y275R/L278R, unneddylated (human, UniProt Q13617 1-745; P62877 1-108; Q15370 1-104; Q15369 17-112; Q9UK73 1-627, Y275R | L278R).

B1: FNIP1/FLCN complex (complex)
chain 1: MAPTLFQKLFSKRTGLGAPGRDARDPDCGFSWPLPEFDPSQIRLIVYQDCERRGRNVLFDSSVKRRNEDISVSKLGSDAQVKVFGKCCQLKPGGDSSSSLDSSVTSSSDIKDQCLKYQGSRCSSDANMLGEMMFGSVAMSYKGSTLKIHQIRSPPQLMLSKVFTARTGSSICGSLNTLQDSLEFINQDNNTLKADNNTVINGLLGNIGLSQFCSPRRAFSEQGPLRLIRSASFFAVHSNPMDMPGRELNEDRDSGIARSASLSSLLITPFPSPNSSLTRSCASSYQRRWRRSQTTSLENGVFPRWSIEESFNLSDESCGPNPGIVRKKKIAIGVIFSLSKDEDENNKFNEFFFSHFPLFESHMNKLKSAIEQAMKMSRRSADASQRSLAYNRIVDALNEFRTTICNLYTMPRIGEPVWLTMMSGTPEKNHLCYRFMKEFTFLMENASKNQFLPALITAVLTNHLAWVPTVMPNGQPPIKIFLEKHSSQSVDMLAKTHPYNPLWAQLGDLYGAIGSPVRLARTVVVGKRQDMVQRLLYFLTYFIRCSELQETHLLENGEDEAIVMPGTVITTTLEKGEIEESEYVLVTMHRNKSSLLFKESEEIRTPNCNCKYCSHPLLGQNVENISQQEREDIQNSSKELLGISDECQMISPSDCQEENAVDVKQYRDKLRTCFDAKLETVVCTGSVPVDKCALSESGLESTEETWQSEKLLDSDSHTGKAMRSTGMVVEKKPPDKIVPASFSCEAAQTKVTFLIGDSMSPDSDTELRSQAVVDQITRHHTKPLKEERGAIDQHQETKQTTKDQSGESDTQNMVSEEPCELPCWNHSDPESMSLFDEYFNDDSIETRTIDDVPFKTSTDSKDHCCMLEFSKILCTKNNKQNNEFCKCIETVPQDSCKTCFPQQDQRDTLSILVPHGDKESSDKKIAVGTEWDIPRNESSDSALGDSESEDTGHDMTRQVSSYYGGEQEDWAEEDEIPFPGSKLIEVSAVQPNIANFGRSLLGGYCSSYVPDFVLQGIGSDERFRQCLMSDLSHAVQHPVLDEPIAEAVCIIADMDKWTVQVASSQRRVTDNKLGKEVLVSSLVSNLLHSTLQLYKHNLSPNFCVMHLEDRLQELYFKSKMLSEYLRGQMRVHVKELGVVLGIESSDLPLLAAVASTHSPYVAQILL
chain 2: MNAIVALCHFCELHGPRTLFCTEVLHAPLPQGDGNEDSPGQGEQAEEEEGGIQMNSRMRAHSPAEGASVESSSPGPKKSDMCEGCRSLAAGHPGYISHDKETSIKYVSHQHPSHPQLFSIVRQACVRSLSCEVCPGREGPIFFGDEQHGFVFSHTFFIKDSLARGFQRWYSIITIMMDRIYLINSWPFLLGKVRGIIDELQGKALKVFEAEQFGCPQRAQRMNTAFTPFLHQRNGNAARSLTSLTSDDNLWACLHTSFAWLLKACGSRLTEKLLEGAPTEDTLVQMEKLADLEEESESWDNSEAEEEEKAPVLPESTEGRELTQGPAESSSLSGCGSWQPRKLPVFKSLRHMRQVLGAPSFRMLAWHVLMGNQVIWKSRDVDLVQSAFEVLRTMLPVGCVRIIPYSSQYEEAYRCNFLGLSPHVQIPPHVLSSEFAVIVEVHAAARSTLHPVGCEDDQSLSKYEFVVTSGSPVAADRVGPTILNKIEAALTNQNLSVDVVDQCLVCLKEEWMNKVKVLFKFTKVDSRPKEDTQKLLSILGASEEDNVKLLKFWMTGLSKTYKSHLMSTVRSPTASESRN
In the case of B1, the koff turned out to be 0.00178 s⁻¹ in assay [1]; 0.000955 s⁻¹ in assay [2]; 0.00184 s⁻¹ in assay [3]; 0.00141 s⁻¹ in assay [4]; 0.000653 s⁻¹ in assay [5].
